# Results: the supplement of paper PMC9112550, “Optimization of the antimicrobial peptide Bac7 by deep mutational scanning” (BMC Biology, 2022)
# Tested on: Escherichia coli TOP10
# Experiment: shrunken log2 fold change of peptide-encoding DNA abundance (4.5 h post-induction vs induction); higher = less antimicrobial activity (less host growth inhibition)
# Settings: time post-induction: 4.5 h; library: site-saturation at positions 5, 18, 19, 20
# 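Note: peptides expressed intracellularly from a pBAD plasmid library in pooled LB shake-flask culture, induced with 0.3% L-arabinose, DNA abundance read by NGS, three biological replicates, DESeq2 with apeglm shrinkage.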
row,Sequence,shrunken log2 fold change
1,RRIRHRPPRLPRPRPRPDHAPRP,0.0557
2,RRIRGRPPRLPRPRPRPLIFPRP,0.404
3,RRIRMRPPRLPRPRPRPAGKPRP,0.461
4,RRIRGRPPRLPRPRPRPRIAPRP,0.519
5,RRIRWRPPRLPRPRPRPIAQPRP,0.582
6,RRIRCRPPRLPRPRPRPIMVPRP,-0.115
7,RRIRYRPPRLPRPRPRPGTGPRP,0.147
8,RRIRARPPRLPRPRPRPSDNPRP,-0.183
9,RRIRGRPPRLPRPRPRPRQDPRP,0.452
10,RRIRIRPPRLPRPRPRPYTCPRP,-0.0187
11,RRIRLRPPRLPRPRPRPWSSPRP,-0.469
12,RRIRLRPPRLPRPRPRPWRGPRP,0.277
13,RRIRDRPPRLPRPRPRPSCFPRP,0.126
14,RRIRCRPPRLPRPRPRPIIDPRP,-0.323
15,RRIRQRPPRLPRPRPRPCLPPRP,-0.186
16,RRIRPRPPRLPRPRPRPGIYPRP,-0.133
17,RRIRHRPPRLPRPRPRPNCRPRP,-0.0986
18,RRIRPRPPRLPRPRPRPWWSPRP,0.361
19,RRIRIRPPRLPRPRPRPEYFPRP,-0.0312
20,RRIRARPPRLPRPRPRPIHDPRP,-0.0961
21,RRIRCRPPRLPRPRPRPIHPPRP,0.00281
22,RRIRPRPPRLPRPRPRPPYSPRP,-0.181
23,RRIRGRPPRLPRPRPRPDCFPRP,1.13
24,RRIRVRPPRLPRPRPRPPNWPRP,0.293
25,RRIRHRPPRLPRPRPRPCWTPRP,-0.237

row,Sequence,shrunken log2 fold change
1,RRIRVRPPRLPRPRPRPTQEPRP,0.124
2,RRIRARPPRLPRPRPRPSQRPRP,0.373
3,RRIRIRPPRLPRPRPRPIVRPRP,-0.339
4,RRIRTRPPRLPRPRPRPKTAPRP,-0.0452
5,RRIRDRPPRLPRPRPRPYRLPRP,-0.0389
6,RRIRIRPPRLPRPRPRPTWGPRP,0.0223
7,RRIRGRPPRLPRPRPRPNPFPRP,0.189
8,RRIRPRPPRLPRPRPRPRRMPRP,0.297
9,RRIRGRPPRLPRPRPRPQVQPRP,0.273
10,RRIRHRPPRLPRPRPRPLDQPRP,-0.116
11,RRIRVRPPRLPRPRPRPHVWPRP,-0.145
12,RRIRERPPRLPRPRPRPQMNPRP,-0.276
13,RRIRCRPPRLPRPRPRPIRFPRP,-0.27
14,RRIRMRPPRLPRPRPRPFAYPRP,-0.157
15,RRIRIRPPRLPRPRPRPHMWPRP,-0.321
16,RRIRPRPPRLPRPRPRPDWIPRP,-0.444
17,RRIRMRPPRLPRPRPRPNCIPRP,0.11
18,RRIRGRPPRLPRPRPRPRLLPRP,0.908
19,RRIRCRPPRLPRPRPRPHCSPRP,-0.769
20,RRIRARPPRLPRPRPRPAQVPRP,0.617
21,RRIRDRPPRLPRPRPRPERSPRP,0.239
22,RRIRCRPPRLPRPRPRPINKPRP,-1.19
23,RRIRERPPRLPRPRPRPGFMPRP,-0.136
24,RRIRARPPRLPRPRPRPKFFPRP,0.305
25,RRIRKRPPRLPRPRPRPHKAPRP,-0.0179

row,Sequence,shrunken log2 fold change
1,RRIRFRPPRLPRPRPRPSTIPRP,-0.45
2,RRIRIRPPRLPRPRPRPEEFPRP,-0.0304
3,RRIRGRPPRLPRPRPRPWHWPRP,0.424
4,RRIRPRPPRLPRPRPRPSHQPRP,0.189
5,RRIRTRPPRLPRPRPRPTWNPRP,-0.0206
6,RRIRIRPPRLPRPRPRPWIAPRP,-0.717
7,RRIRSRPPRLPRPRPRPLMHPRP,-0.142
8,RRIRCRPPRLPRPRPRPYYVPRP,-0.519
9,RRIRSRPPRLPRPRPRPRRAPRP,0.41
10,RRIRRRPPRLPRPRPRPSTCPRP,0.0254
11,RRIRPRPPRLPRPRPRPFQGPRP,-0.0115
12,RRIRCRPPRLPRPRPRPPTLPRP,-0.0423
13,RRIRVRPPRLPRPRPRPKCKPRP,-0.191
14,RRIRTRPPRLPRPRPRPKALPRP,0.293
15,RRIRTRPPRLPRPRPRPDSGPRP,-0.0764
16,RRIRTRPPRLPRPRPRPSKMPRP,-0.793
17,RRIRTRPPRLPRPRPRPFAPPRP,0.163
18,RRIRNRPPRLPRPRPRPAIQPRP,-0.0231
19,RRIRKRPPRLPRPRPRPMWYPRP,0.0551
20,RRIRHRPPRLPRPRPRPLKLPRP,0.0187
21,RRIRRRPPRLPRPRPRPLPTPRP,0.729
22,RRIRVRPPRLPRPRPRPMPFPRP,-0.259
23,RRIRRRPPRLPRPRPRPKQNPRP,0.631
24,RRIRSRPPRLPRPRPRPETPPRP,1.01
25,RRIRMRPPRLPRPRPRPRNTPRP,0.354

row,Sequence,shrunken log2 fold change
1,RRIRTRPPRLPRPRPRPYCHPRP,-0.213
2,RRIRQRPPRLPRPRPRPDWPPRP,0.416
3,RRIRNRPPRLPRPRPRPMERPRP,0.019
4,RRIRMRPPRLPRPRPRPGGHPRP,0.516
5,RRIRFRPPRLPRPRPRPVNDPRP,-0.0167
6,RRIRERPPRLPRPRPRPECPPRP,0.0592
7,RRIRLRPPRLPRPRPRPHYRPRP,-0.0911
8,RRIRNRPPRLPRPRPRPHERPRP,-0.13
9,RRIRERPPRLPRPRPRPQACPRP,-0.0746
10,RRIRTRPPRLPRPRPRPKKRPRP,0.0216
11,RRIRFRPPRLPRPRPRPEVDPRP,0.084
12,RRIRYRPPRLPRPRPRPNCSPRP,-0.973
13,RRIRVRPPRLPRPRPRPYVIPRP,-0.189
14,RRIRCRPPRLPRPRPRPDRRPRP,0.0327
15,RRIRSRPPRLPRPRPRPQGWPRP,0.469
16,RRIRQRPPRLPRPRPRPHFEPRP,0.154
17,RRIRSRPPRLPRPRPRPNHSPRP,-0.736
18,RRIRCRPPRLPRPRPRPVVIPRP,-0.223
19,RRIRDRPPRLPRPRPRPNFKPRP,-0.0287
20,RRIRMRPPRLPRPRPRPFHDPRP,-0.14
21,RRIRVRPPRLPRPRPRPYVGPRP,-0.0869
22,RRIRSRPPRLPRPRPRPDSIPRP,0.0681
23,RRIRKRPPRLPRPRPRPIHVPRP,-0.0353
24,RRIRQRPPRLPRPRPRPACKPRP,-0.0465
25,RRIRNRPPRLPRPRPRPQGTPRP,-0.0148

row,Sequence,shrunken log2 fold change
1,RRIRDRPPRLPRPRPRPGPGPRP,0.764
2,RRIRKRPPRLPRPRPRPIQIPRP,-0.14
3,RRIRDRPPRLPRPRPRPWRVPRP,0.28
4,RRIRYRPPRLPRPRPRPHSQPRP,-0.71
5,RRIRQRPPRLPRPRPRPGDAPRP,1.65
6,RRIRFRPPRLPRPRPRPFWNPRP,-0.00687
7,RRIRHRPPRLPRPRPRPSRGPRP,-0.0716
8,RRIRKRPPRLPRPRPRPWNHPRP,-0.172
9,RRIRTRPPRLPRPRPRPTGIPRP,0.00119
10,RRIRDRPPRLPRPRPRPCWGPRP,0.0493
11,RRIRDRPPRLPRPRPRPKICPRP,0.0258
12,RRIRHRPPRLPRPRPRPYHRPRP,-0.00968
13,RRIRMRPPRLPRPRPRPLNTPRP,0.163
14,RRIRNRPPRLPRPRPRPILSPRP,-0.00144
15,RRIRPRPPRLPRPRPRPKIGPRP,0.0118
16,RRIRIRPPRLPRPRPRPFQDPRP,0.0408
17,RRIRDRPPRLPRPRPRPELIPRP,0.0219
18,RRIRQRPPRLPRPRPRPQGEPRP,-0.154
19,RRIRRRPPRLPRPRPRPRIFPRP,0.0808
20,RRIRIRPPRLPRPRPRPAWLPRP,0.272
21,RRIRSRPPRLPRPRPRPMTVPRP,-0.0124
22,RRIRGRPPRLPRPRPRPYMEPRP,-0.164
23,RRIRDRPPRLPRPRPRPSDCPRP,-0.482
24,RRIRARPPRLPRPRPRPCHGPRP,-0.214
25,RRIRGRPPRLPRPRPRPWEEPRP,-0.0105

row,Sequence,shrunken log2 fold change
1,RRIRHRPPRLPRPRPRPDEPPRP,0.197
2,RRIRDRPPRLPRPRPRPEFKPRP,-0.0319
3,RRIRVRPPRLPRPRPRPCKDPRP,-0.0644
4,RRIRWRPPRLPRPRPRPDKNPRP,0.142
5,RRIRQRPPRLPRPRPRPKRRPRP,0.0204
6,RRIRNRPPRLPRPRPRPDMNPRP,-0.0522
7,RRIRHRPPRLPRPRPRPGVLPRP,0.0408
8,RRIRFRPPRLPRPRPRPLFHPRP,-0.632
9,RRIRIRPPRLPRPRPRPHSNPRP,-0.502
10,RRIRCRPPRLPRPRPRPEQDPRP,-0.0796
11,RRIRTRPPRLPRPRPRPRNWPRP,0.325
12,RRIRARPPRLPRPRPRPRIFPRP,0.213
13,RRIRFRPPRLPRPRPRPALDPRP,0.436
14,RRIRRRPPRLPRPRPRPWAWPRP,0.0216
15,RRIRPRPPRLPRPRPRPTMNPRP,-0.0529
16,RRIRWRPPRLPRPRPRPMAWPRP,-0.0156
17,RRIRGRPPRLPRPRPRPAFYPRP,0.178
18,RRIRKRPPRLPRPRPRPMAHPRP,-0.000911
19,RRIRVRPPRLPRPRPRPLFGPRP,-0.104
20,RRIRHRPPRLPRPRPRPSANPRP,-0.228
21,RRIRYRPPRLPRPRPRPECPPRP,-0.00973
22,RRIRFRPPRLPRPRPRPLGTPRP,0.0158
23,RRIRTRPPRLPRPRPRPLNVPRP,-0.0675
24,RRIRDRPPRLPRPRPRPNQEPRP,-0.0564
25,RRIRVRPPRLPRPRPRPWICPRP,-0.358
